In the RNAGym collection of RNA variant scans (doi:10.7554/elife.80360):

B1: Hairpin Ribozyme (parent)
chain: GUCCUCUUUCACGUGCGCGUGAAAGAGAGAAGUGAACCAGAGAAACACACGUUGUGGUAUAUUACCUGGUA

Variants of: B1
Assay: self-cleavage, relative activity (ratio to wild type); higher = more cleavage; co-transcriptional

With GUCCUCUUUCACGAGCGCGUGAAAGAGAGAAGUGAACCAGAGAAACACAUGUUGUGGUAUAUUACCUGGUA [U14A C50U] as the variant, how does the self-cleavage read?
Its self-cleavage is 0.397.

For GUCCUCUUUCACUUGCGCGUGAAAGAGAGAAGUGAACCAGAGAAACACAUGUUGUGGUAUAUUACCUGGUA [G13U C50U], which self-cleavage is on record?
The self-cleavage was 0.268.

For GUCCUCUUUCACGAGCGCGUGAAAGAGAGAAGUUAACCAGAGAAACACACGUUGUGGUAUAUUACCUGGUA [U14A G34U], which self-cleavage is on record?
Its self-cleavage is 1.47.

For GUCCUCUUUCACGAGCGCGUGAAAGAGAGAAGUGAACCAGAGAAACGCACGUUGUGGUAUAUUACCUGGUA [U14A A47G], which self-cleavage is on record?
Its self-cleavage is 0.153.

Which self-cleavage does the source give for GUCCUCUUUCACUUGCGCGUGAAAGAGAGAAGUGAACCAGAGAAACAGACGUUGUGGUAUAUUACCUGGUA [G13U C48G] here?
Its self-cleavage is 0.106.

For GUCCUCUUUCACUUGCGCGUGAAAGAGAGAAGUGAACCAGAGAAACACACGUUGUGGUAUAUUACCUGGAA [G13U U70A], which self-cleavage is on record?
Its self-cleavage is 0.771.

For GUCCUCUUUCACUUUCGCGUGAAAGAGAGAAGUGAACCAGAGAAACACACGUUGUGGUAUAUUACCUGGUA [G13U G15U], which self-cleavage is on record?
The self-cleavage was 0.941.

With GUCCUCUUUCACUUGCGCAUGAAAGAGAGAAGUGAACCAGAGAAACACACGUUGUGGUAUAUUACCUGGUA [G13U G19A] as the variant, how does the self-cleavage read?
The self-cleavage was 0.73.

With GUCCUCUUUCACGAGCGCGUGAAAGAGAGAAGUGAACCAGAGAAACACACGUUGUGGUAUAUUACGUGGUA [U14A C66G] as the variant, how does the self-cleavage read?
Its self-cleavage is 0.143.

With GUCCUCUUUCACGAGCGCGUGAAAGAGAGAAGUGAACCAGGGAAACACACGUUGUGGUAUAUUACCUGGUA [U14A A41G] as the variant, how does the self-cleavage read?
Its self-cleavage is 0.867.

With GUCCUCUUUCACUUGCGCGUGAAAGAGAGAAGUGAACCAGACAAACACACGUUGUGGUAUAUUACCUGGUA [G13U G42C] as the variant, how does the self-cleavage read?
The self-cleavage was 0.227.

With GUCCUCUUUCACUUGCGCGUGAAAGAGAGAAGUGAACCAGAGAAACACACGUUGUGGUAUAUUACCUUGUA [G13U G68U] as the variant, how does the self-cleavage read?
The self-cleavage was 0.243.

For GUCCUCUUUCACGAGCGCGUGAAAGAGAGAUGUGAACCAGAGAAACACACGUUGUGGUAUAUUACCUGGUA [U14A A31U], which self-cleavage is on record?
The self-cleavage was 0.124.

With GUCCUCUUUCACUUGCGCGUGAAAGAGAGAAGUGAACCAGAGAAACACACGUUGUGGUAUAAUACCUGGUA [G13U U62A] as the variant, how does the self-cleavage read?
The self-cleavage was 0.179.

Which self-cleavage does the source give for GUCCUCUUUCACGAGCGCGUGAAAGAGAGAAGUGAACCAGAGAAACACACGUUGUGGUAUAUUACCUGGUU [U14A A71U] here?
The self-cleavage was 0.645.

For GUCCUCUUUCACGAGCGCGUGAAAGAGAGAAGUGAACCAGAGAAACACACGUUGUGGUAUAUUACCUGGUC [U14A A71C], which self-cleavage is on record?
The self-cleavage was 1.34.

With GUCCUCUUUCACGAGCGCGUGAAUGAGAGAAGUGAACCAGAGAAACACACGUUGUGGUAUAUUACCUGGUA [U14A A24U] as the variant, how does the self-cleavage read?
Its self-cleavage is 0.644.

For GUCCUCUUUCACGAGCGCGUGAAAGCGAGAAGUGAACCAGAGAAACACACGUUGUGGUAUAUUACCUGGUA [U14A A26C], which self-cleavage is on record?
The self-cleavage was 0.817.

For GUCCUCUUUCACUUGCGCGUGAAAGAGAGAAGUGAACCAGAGAAACACACCUUGUGGUAUAUUACCUGGUA [G13U G51C], which self-cleavage is on record?
Its self-cleavage is 0.745.

For GUCCUCUUUCACUUGCGCGUGAAAGAGAGAAGUGAACCAGAGAAACACACUUUGUGGUAUAUUACCUGGUA [G13U G51U], which self-cleavage is on record?
The self-cleavage was 0.887.

Which self-cleavage does the source give for GUCCUCUUUCACGAGCGCAUGAAAGAGAGAAGUGAACCAGAGAAACACACGUUGUGGUAUAUUACCUGGUA [U14A G19A] here?
Its self-cleavage is 0.756.

Which self-cleavage does the source give for GUCCUCUUUCACUUGCUCGUGAAAGAGAGAAGUGAACCAGAGAAACACACGUUGUGGUAUAUUACCUGGUA [G13U G17U] here?
The self-cleavage was 0.712.

Which self-cleavage does the source give for GUCCUCUUUCACGAGCGCGUGAAAGAGAGAAGUGAACCGGAGAAACACACGUUGUGGUAUAUUACCUGGUA [U14A A39G] here?
Its self-cleavage is 0.345.

Which self-cleavage does the source give for GUCCUCUUUCACUUGCGCGUGAAAGAGAGAAGUGAACCAGAGAAACACACGUUAUGGUAUAUUACCUGGUA [G13U G54A] here?
The self-cleavage was 0.518.

With GUCCUCUUUCACGAGCGCGUGAAAGAGAGAAGUGAACCAGAGAAACACACGUUGUGGUGUAUUACCUGGUA [U14A A59G] as the variant, how does the self-cleavage read?
The self-cleavage was 0.0952.

For GUCCUCUUUCACUUGCGCGUGAAAGAGAGAAGUGAACCAGAGAAACACACGUUGUGGUAUAUUACCUGCUA [G13U G69C], which self-cleavage is on record?
The self-cleavage was 0.198.

For GUCCUCUUUCACUUGCGCGUGAAAGAGAGAAGUGAACCAGAGAAACACACGUUGUCGUAUAUUACCUGGUA [G13U G56C], which self-cleavage is on record?
The self-cleavage was 0.12.

For GUCCUCUUUCACGAGCGCGUGAAAGAGAGCAGUGAACCAGAGAAACACACGUUGUGGUAUAUUACCUGGUA [U14A A30C], which self-cleavage is on record?
Its self-cleavage is 0.222.

With GUCCUCUUUCACGAGCGCGUGAAAGAGAGGAGUGAACCAGAGAAACACACGUUGUGGUAUAUUACCUGGUA [U14A A30G] as the variant, how does the self-cleavage read?
The self-cleavage was 0.165.

Which self-cleavage does the source give for GUCCUCUUUCACGAGCGCGUGAAAGAGAGUAGUGAACCAGAGAAACACACGUUGUGGUAUAUUACCUGGUA [U14A A30U] here?
Its self-cleavage is 0.156.

Which self-cleavage does the source give for GUCCUCUUUCACGAGCGCGUGAAAGAGAGAAGUGAACCAGAGAAACACACGUUGUGGUAUAUUACCUGGUA [U14A] here?
The self-cleavage was 0.956.

For GUCCUCUUUCACGAGCGCGUGAAAGAGAGAAGUGAACAAGAGAAACACACGUUGUGGUAUAUUACCUGGUA [U14A C38A], which self-cleavage is on record?
Its self-cleavage is 0.171.

With GUCCUCUUUCACGAGCGCGUGAAAGAGAGAAGUGAACCAGAGAAACAGACGUUGUGGUAUAUUACCUGGUA [U14A C48G] as the variant, how does the self-cleavage read?
Its self-cleavage is 0.196.

For GUCCUCUUUCACGAGCGCGUGAAAGAGAGAAGUGAACCAGAGAAACAAACGUUGUGGUAUAUUACCUGGUA [U14A C48A], which self-cleavage is on record?
Its self-cleavage is 0.179.

For GUCCUCUUUCACGAGCGCGUGAAAGAGAGAAGUGAACCAGAGAAGCACACGUUGUGGUAUAUUACCUGGUA [U14A A45G], which self-cleavage is on record?
Its self-cleavage is 0.0459.

For GUCCUCUUUCACUUGCGCGUAAAAGAGAGAAGUGAACCAGAGAAACACACGUUGUGGUAUAUUACCUGGUA [G13U G21A], which self-cleavage is on record?
Its self-cleavage is 0.595.

With GUCCUCUUUCACUUGCGCGUCAAAGAGAGAAGUGAACCAGAGAAACACACGUUGUGGUAUAUUACCUGGUA [G13U G21C] as the variant, how does the self-cleavage read?
Its self-cleavage is 0.431.

Which self-cleavage does the source give for GUCCUCUUUCACGAGCGCGUGAAACAGAGAAGUGAACCAGAGAAACACACGUUGUGGUAUAUUACCUGGUA [U14A G25C] here?
The self-cleavage was 0.418.
